Source: the supplement of paper PMC7125110
± gives the standard error. This sample holds only a part of the variants without activity.

B1: glmS ribozyme (parent)
chain: AUAAAAGCGCCAGAACUACAGAAAUGUAGUUGACGAGGAGGAGGUUUAUCGAAUUUUCGGCGGAUGCCUCCAAA

Variants of: B1
Test: self-cleavage kobs at 10000 uM GlcN6P; higher = faster cleavage; RNA array
Details: with glucosamine-6-phosphate
In short: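 Weighted Michaelis–Menten fits across concentrations supplied kcat and KM, based on kobs from one- or two-exponential decay fits to normalised per-tile medians. The data came from barcoded ribozyme variants transcribed in situ by E. coli RNA polymerase on sequenced MiSeq chips and tracked at 37 °C by a hybridised Cy3 probe. Glucosamine-6-phosphate (40 μM to 10 mM) in HEPES/KCl/Mg(OAc)2 buffer was flowed in.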

AUAAAAGCGCCAUAACUACAGAAAUGUAGUUGACGAGGAUGAGGUUUAUCGAAUUUUCGGUGGAUGCUUCCAAA and AUAAAAGCGCCAGUACUACAGAAAUGUAGUUGACGAGGAGGAGGUUUACCGAAUUUUCGGCGGAUGCCUACAAA cannot be ordered by “self-cleavage kobs at 10000 uM GlcN6P” value: less than 1e-05 s⁻¹ for the first, less than 1e-05 s⁻¹ for the second.

First: AUAAAAGCGCCAGCACUACAGAAAUGUAGUUGACGAGGAGGAGGUUUAUCGAAUUUUCGGCGGACGCCUCUAAA
Second: AUAAAAGCGCCAUAACUACAGAAAUGUAGUUGACGAGGUGGAGGUUUAUCGAAUUUUCGGCGGAUGCCUCUAAA
The “self-cleavage kobs at 10000 uM GlcN6P” value of the first is 12-fold lower: 4.99e-05 ± 2.1e-05 s⁻¹ for the first, 0.000606 ± 0.00012 s⁻¹ for the second.

Going from AUAAAAGCGCCAGGACUACAGAAAUGUAGUUGACGAGGAGGUGGUUUAUCGGAUUUUCGGCGGAUGCCUCCAAA to AUAAAAGCGCCAGAGCUACAGAAAUGUAGUUGACGAGGAGGAGGUUUAUCGAAUGUUAGGCGGAUGCCUCCAAA, the “self-cleavage kobs at 10000 uM GlcN6P” value rises from 6.3e-05 ± 1.1e-05 s⁻¹ to 0.000435 ± 8.3e-05 s⁻¹ (6.9-fold).

Compared with AUAAAAGCGCCAGAGCUACAGAAAUGUAGUUGACGAGGAGGAGGUUUAUCGAAUUUUCGGCGGAUCCUUCCAAA, AUAAAAGCGCCAGAGCUACAGAAAUGUAGGUGACGAGGAUGAGGUUUAUCGAAUUUUCGGCGGAUGCCUCCAAA is 6.8-fold higher in “self-cleavage kobs at 10000 uM GlcN6P” value: 0.000127 ± 2.6e-05 s⁻¹ for the first, 0.000863 ± 0.00017 s⁻¹ for the second.

Compared with AUAAAAGCGCCAGAUCUACAGAAAUGUAGUUGACGAGGAGGAGGUUUAUCGAAUUUUCGGCGGAUGCCUUUAAA, AUAAAAGCGCCAGUACUACAGAAAUGUAGUUGAGGAGGAGGAGGUUUAUCGAAUUUUCGGCGGAUGCCUCUAAA is lower in “self-cleavage kobs at 10000 uM GlcN6P” value: 6.65e-05 ± 1.8e-05 s⁻¹ for the first, less than 1e-05 s⁻¹ for the second.

Going from AUAAAAGCGCCAGACCUACAGAAAUGUAGCUGACGAGGGGGAGGUUUAUCGAAUUUUCGGCGGAUGCCUCCAAA to AUAAAAGCGCCAUCACUACAGAAAUGUAGUUGACGAGGAGGAGGUUUAUCGAAUUUUGGGCGGAUGCCUCCAAA, the “self-cleavage kobs at 10000 uM GlcN6P” value falls from 0.000286 ± 6.4e-05 s⁻¹ to 7.6e-05 ± 1.7e-05 s⁻¹ (3.8-fold).

Going from AUAAAAGCGCCAGACCUACAGAAAUGUACUUGACGAGGAGGAGGUUUAUCGAAUUUUCAGCGGAAGCCUCCAAA to AUAAAAGCGCCAGUACUACAGAAAUGUAGUUGACGAGGACGAGGUUUAUCGAAUUAUCGGCGGGUGCCUCCAAA, the “self-cleavage kobs at 10000 uM GlcN6P” value rises from less than 1e-05 s⁻¹ to 8.64e-05 ± 2.9e-05 s⁻¹.

AUAAAAGCGCCAGUACUACAGAAAUGUAGUUGACGAGGAGGAGGUUUAUCAAAUUUCCGGCGGAUGCCUCCAAA and AUAAAAGCGCCAUAACUACAGAAAUGUAGUUGACGAAGAUGAGGUUUAUCGAAUUUUCGGCGGAUGCCUCCAAA cannot be ordered by “self-cleavage kobs at 10000 uM GlcN6P” value: less than 1e-05 s⁻¹ for the first, less than 1e-05 s⁻¹ for the second.

AUAAAAGCGCCAGUACUACAGAAAUGUAGAUGACGAGGACGAGGUUUAUCGAAUUUUCGGCGGAUGCCUCCAAA and AUAAAAGCGCCAGAGCUACAGAAAUGUAGUUGACGAGGAGGAGGUUUAUCGAAUUUUCGGCGGAUUCCUACAAA are within error of each other in “self-cleavage kobs at 10000 uM GlcN6P” value: 5.69e-05 ± 1.4e-05 s⁻¹ for the first, 8.77e-05 ± 1.7e-05 s⁻¹ for the second.

AUAAAAGCGCCAGAGCUACAGAAAUGUAGUUGACGAGGAGCAGGUUGAUCGAAUUUUCGGUGGAAGCCUCCAAA and AUAAAAGCGCCAGGACUACAGAAAUGUAGUUGACGCGGAGGUGGUUUAUCGAAUUUUCGGCGGAUGCCUCCAAA cannot be ordered by “self-cleavage kobs at 10000 uM GlcN6P” value: less than 1e-05 s⁻¹ for the first, less than 1e-05 s⁻¹ for the second.

Compared with AUAAAAGCGCCAGAUCUACAGAAAUGUAGUUGACGAGGUGGAGGUUUAUCGAAUAUUCGGCGGAUGCCUCCAAA, AUAAAAGCGCCAGAGCUACAGAAAUGUAGUUGACGAGGAGGAGGUUUAUGGAAUUUUCGGCGGAUGCAUCCAAA is 38-fold lower in “self-cleavage kobs at 10000 uM GlcN6P” value: 0.00299 ± 0.00069 s⁻¹ for the first, 7.87e-05 ± 1.6e-05 s⁻¹ for the second.

Going from AUAAAAGCGCCAGUACUACAGAAAUGUAGCUGACGAGCAGGAGGUUUAUCGAAUUUUCGGCGGAUGCCUCCAAA to AUAAAAGCGCCAGUACUACAGAAAUGUAGUUGACGAGGAGGAGGUUUAUCGAUUUUUCGGCGGAUGCUUCCAAA, the “self-cleavage kobs at 10000 uM GlcN6P” value rises from less than 1e-05 s⁻¹ to 0.00114 ± 0.00036 s⁻¹.

First: AUAAAAGCGCCAGACGUACAGAAAUGUAGUUGACGAGGAGGAGGUUUAUCGAAUUUUCGGCGGAGGCCUCCAAA
Second: AUAAAAGCGCCAGUACUACAGAAAUGUAGUUGACGAUGAGGAGGUUUGCCGAAUUUUCGGCGGAUGCCUCUAAA
The “self-cleavage kobs at 10000 uM GlcN6P” value of the first is higher: 0.000462 ± 8e-05 s⁻¹ for the first, less than 1e-05 s⁻¹ for the second.

Compared with AUAAAAGCGCCAGCACUACAGAAAUGUAGUUGACGAGGAGGAGGUUUAUCGAAUUUUUGGCGGAUGCCUCCAAA, AUAAAAGCGCCAGCACUACAGAAAUGUAGUUGACGAGGAGGGGGUUUAUCGAAUUUUCGGAGGAUGCCUCCAAA is lower in “self-cleavage kobs at 10000 uM GlcN6P” value: 8.12e-05 ± 1.2e-05 s⁻¹ for the first, less than 1e-05 s⁻¹ for the second.

Compared with AUAAAAGCGCCAGGAUUACAGAAAUGUAGUUGACGAGGUGGAGGUUUAUCGAAUUUUCGGCGGAUGCCUCCAAA, AUAAAAGCGCCAGGACUACAGAAAUGUAGUUGUCGAGGUGGAGGUUUAUCGAAUUUUCGGCGGAUGCCUCCAAA is 1900-fold lower in “self-cleavage kobs at 10000 uM GlcN6P” value: 0.0817 ± 0.036 s⁻¹ for the first, 4.23e-05 ± 1.4e-05 s⁻¹ for the second.

Going from AUAAAAGCGCCAGUCCUACAGAAAUGUAGUUAACGAGGAGGUGGUUUAUCGAUUUUUCGGCGGAUGCCUUCAAA to AUAAAAGCGCCAUAACUACAGAAAUGUAGUUGACGAGGAGGAGGUUUAUCGAAUGUUCGGCGGAUGUCUCCAAA, the “self-cleavage kobs at 10000 uM GlcN6P” value rises from less than 1e-05 s⁻¹ to 0.0003 ± 6.1e-05 s⁻¹.

First: AUAAAAGCGCCAUAACUACAGAAAUGUAGUUGAUGAUGAGGAGGUUUAUCGAUUUUUCGGCGGAUGCCUCCAAA
Second: AUAAAAGCGCCAGGACUACAGAAAUGUAGUUCACGAGGAUGGGGUUUAUCGAAUUUUCGGCGGAUGCCUCCAAA
The “self-cleavage kobs at 10000 uM GlcN6P” value of the first is lower: less than 1e-05 s⁻¹ for the first, 6.25e-05 ± 2.1e-05 s⁻¹ for the second.

Going from AUAAAAGCGCCAGCACUACAGAAAUGUAGUUGACGAGGAGGAGGUUUAUGGAAUUUUCGGCUGAUGGCUCCAAA to AUAAAAGCGCCAGGACUACAGAAAUGUAGUUGACGAGGACUAGGUUUAUCGAAUUUUCGGCGGAUGCCUCCAAA, the “self-cleavage kobs at 10000 uM GlcN6P” value rises from 6.05e-05 ± 1.8e-05 s⁻¹ to 0.000186 ± 4e-05 s⁻¹ (3.1-fold).

AUAAAAGCGCCAGAGCUACAGAAAUGUAGUUGACGAGGAGGAGGUUUAUCGGAUUUUCGGCGGAUACUUCCAAA was tested, and the “self-cleavage kobs at 10000 uM GlcN6P” value was 0.000149 ± 2.8e-05 s⁻¹.
